US20250368754A1 (KANAPH THERAPEUTICS, published 2025)

Assays:
recombinant human FAP = target: T1, recombinant human FAP (human, UniProt Q12884 26-760); experiment: SPR, fusion protein captured by anti-human IgG (Fc) on CM5, recombinant human FAP as analyte, 1:1 binding model
T1 construct: also called rhFAP
T1 sequence (looked up): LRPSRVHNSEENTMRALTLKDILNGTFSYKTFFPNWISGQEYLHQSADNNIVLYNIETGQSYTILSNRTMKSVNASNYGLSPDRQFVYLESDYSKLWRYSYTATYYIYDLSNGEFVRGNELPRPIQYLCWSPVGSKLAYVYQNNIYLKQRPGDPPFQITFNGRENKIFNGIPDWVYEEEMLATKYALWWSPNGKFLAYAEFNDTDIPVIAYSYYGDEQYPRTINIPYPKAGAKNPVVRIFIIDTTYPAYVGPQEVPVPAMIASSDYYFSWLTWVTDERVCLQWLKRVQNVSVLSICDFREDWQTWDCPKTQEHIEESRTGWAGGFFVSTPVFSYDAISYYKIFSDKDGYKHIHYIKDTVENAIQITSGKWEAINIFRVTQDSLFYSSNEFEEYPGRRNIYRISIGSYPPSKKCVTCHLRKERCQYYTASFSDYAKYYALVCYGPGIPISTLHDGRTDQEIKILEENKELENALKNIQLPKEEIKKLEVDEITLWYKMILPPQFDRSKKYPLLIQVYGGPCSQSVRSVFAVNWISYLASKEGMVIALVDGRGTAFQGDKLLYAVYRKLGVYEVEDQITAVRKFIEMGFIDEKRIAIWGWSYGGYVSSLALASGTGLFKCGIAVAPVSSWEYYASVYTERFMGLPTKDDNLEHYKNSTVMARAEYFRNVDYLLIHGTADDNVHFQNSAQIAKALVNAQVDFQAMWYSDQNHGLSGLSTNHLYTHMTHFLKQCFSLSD
Description: Specifically, the surface of the CM5 chip was activated with a 1:1 mixture of […] NHS (N-hydroxysuccinimide) and 200 nM EDC (1-ethyl-3-(3-dimethylaminopropyl)carbodiimide), and 20 μg/mL of anti-human IgG (Fc) antibody was immobilized for 400 seconds at a rate of 10 μL/min. The remaining active ester groups were blocked with 1 M ethanolamine. T3.01, T3.07, and T3.14 were diluted to 2 μg/mL, 1 μg/mL, and 2 μg/mL, respectively, and reacted on the CM5 chip immobilized with the anti-human IgG (Fc) antibody. The recombinant human FAP was diluted to 50 nM or 100 nM in 1×HBS-EP+buffer solution and diluted by serial dilution. The diluted recombinant human FAP was reacted at a rate of 30 μL/min. The association and dissociation times were 180 seconds and 400 seconds, respectively. After the dissociation step, stabilization was performed for 60 seconds, and then the regeneration step was performed for 30 seconds with a 10 mM glycine pH 1.5 solution at a rate of 30 μL/min.

[1] = target: T2, human FAP on HEK293-hFAP cells (human, UniProt Q12884 1-760); experiment: flow cytometry on HEK293-hFAP cells, 1 ug protein per 1x10^5 cells, anti-human IgG detection (axis TMEkine-PE)
T2 construct: whole, on cells; also called human FAP-expressing cell line
T2 sequence (looked up): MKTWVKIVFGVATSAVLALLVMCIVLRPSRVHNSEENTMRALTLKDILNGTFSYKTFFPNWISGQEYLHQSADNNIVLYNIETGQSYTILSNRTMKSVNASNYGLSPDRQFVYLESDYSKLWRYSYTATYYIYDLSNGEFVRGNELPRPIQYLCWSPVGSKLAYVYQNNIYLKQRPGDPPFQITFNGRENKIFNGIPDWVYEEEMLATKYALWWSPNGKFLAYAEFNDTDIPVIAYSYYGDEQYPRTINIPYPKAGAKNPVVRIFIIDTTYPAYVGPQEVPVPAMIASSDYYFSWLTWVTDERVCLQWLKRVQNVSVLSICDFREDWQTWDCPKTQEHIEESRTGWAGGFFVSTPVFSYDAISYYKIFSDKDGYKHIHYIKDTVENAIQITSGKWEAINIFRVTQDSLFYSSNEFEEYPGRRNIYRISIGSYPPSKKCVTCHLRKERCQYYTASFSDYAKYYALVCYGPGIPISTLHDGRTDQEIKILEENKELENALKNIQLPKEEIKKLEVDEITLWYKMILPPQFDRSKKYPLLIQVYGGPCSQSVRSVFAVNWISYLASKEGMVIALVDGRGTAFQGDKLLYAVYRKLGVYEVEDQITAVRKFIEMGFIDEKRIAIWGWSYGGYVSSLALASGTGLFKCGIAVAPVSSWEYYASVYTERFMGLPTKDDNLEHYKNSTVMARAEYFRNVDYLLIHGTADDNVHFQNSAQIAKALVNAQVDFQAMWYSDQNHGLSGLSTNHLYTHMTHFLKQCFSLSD
Description: Specifically, the cell line was prepared by suspending in a FACS buffer solution at 1×10⁵ cells/100 μL, and treated with 1 μg each of T3.10, T3.01, T3.05, T3.06, T3.14, and T3.18. The cells were washed twice with a FACS buffer solution. The cells were stained with an anti-human IgG antibody (Biolegend). The negative control sample was stained only with an anti-human IgG antibody (Biolegend). The expression ratio of the stained cells was measured using BD LSR and analyzed using FlowJo software.

[2] = target: T3, recombinant human herpes virus entry mediator (HVEM) (human, UniProt Q92956 39-202); experiment: SPR, human HVEM immobilised on the chip (title: PRO096; 6ug/ml human HVEM pH5.5), T3.14 as analyte 0.78125-100 nM
T3 construct: neither construct is described; also called human HVEM; recombinant human HVEM protein (R&D systems)
T3 sequence (looked up): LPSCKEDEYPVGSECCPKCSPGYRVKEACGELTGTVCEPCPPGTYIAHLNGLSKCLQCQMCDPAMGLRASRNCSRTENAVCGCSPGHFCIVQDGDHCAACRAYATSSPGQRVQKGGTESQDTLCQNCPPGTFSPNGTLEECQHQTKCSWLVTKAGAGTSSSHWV
Description: Specifically, the surface of the CM5 chip was activated with a 1:1 mixture of […], and 5 to 6 μg/mL of human HVEM was immobilized for 60 seconds at a rate of 10 μL/min. The remaining active ester groups were blocked with 1 M ethanolamine. T3.01, T3.07, T3.09, T3.14, and T3.18 were each diluted to 100 nM in 1×HBS-EP+buffer solution and diluted by serial dilution. The diluted fusion proteins were reacted at a rate of 30 μL/min. The association and dissociation times were 180 seconds and 400 seconds, respectively. After the dissociation step, stabilization was performed for 60 seconds, and then the regeneration step was performed for 30 seconds with a 10 mM glycine pH 1.5 solution at a rate of 30 μL/min.

B1: T3.01 (anti-hu FAP/hu scLIGHT3, hu IgG1 DANG) (bispecific antibody)
heavy: QVQLVQSGAEVKKPGASVKVSCKTSRYTFTEYTIHWVRQAPGQRLEWIGGINPNNGIPNYNQKFKGRVTITVDTSASTAYMELSSLRSEDTAVYYCARRRIAYGYDEGHAMDYWGQGTLVTVSSASTKGPSVFPLAPSSKSTSGGTAALGCLVKDYFPEPVTVSWNSGALTSGVHTFPAVLQSSGLYSLSSVVTVPSSSLGTQTYICNVNHKPSNTKVDKKVEPKSCDKTHTCPPCPAPELLGGPSVFLFPPKPKDTLMISRTPEVTCVVVAVSHEDPEVKFNWYVDGVEVHNAKTKPREEQYGSTYRVVSVLTVLHQDWLNGKEYKCKVSNKALPAPIEKTISKAKGQPREPQVYTLPPSRDELTKNQVSLWCLVKGFYPSDIAVEWESNGQPENNYKTTPPVLDSDGSFFLYSKLTVDKSRWQQGNVFSCSVMHEALHNHYTQKSLSLSPGK
light: not shown
chain: not shown
notes: Knob-into-hole heterodimer: one anti-FAP Fab arm and one single-chain human LIGHT (91-240) homotrimer arm
Recombinant human FAP
  Kd: 0.0364 nM
  koff: 3.89e-06 s⁻¹
  kon: 107000 M⁻¹ s⁻¹
[1]
  percent of cells in the positive gate: 99.5%

B2: T3.14 (anti-hu FAP/hu scLIGHT-LTb2, hu IgG1 DANG) (bispecific antibody)
heavy: B1 heavy
light: not shown
chain: not shown
notes: Knob-into-hole; single-chain heterotrimer of one human LIGHT and two human lymphotoxin beta (87-243)
Recombinant human FAP
  Kd: 0.0123 nM
  koff: 1.53e-06 s⁻¹
  kon: 124000 M⁻¹ s⁻¹
[2]
  binding result: no binding (tested: 100 nM)
[1]
  percent of cells in the positive gate: 99.9%
